The supplement of paper PMC9170038

System: MS2 coat protein
Test: apparent KD of MS2 coat protein; designed switch direction (-1 OFF switch, 1 ON switch): 1; higher = weaker reporter binding
Summary of the method: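 For each design, the apparent KD is the median over clusters of curves fitted to normalised cluster fluorescence. Clusters held RNA switches with common flanks, transcribed on Illumina chips by stalled E. coli RNA polymerase. These were titrated with SNAP-549-labelled MS2 coat protein, doubling from 0.7 or 1.5 nM to 3 µM, without input, with 200 uM small-molecule ligand, or with an oligonucleotide input.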

[1] = input ligand: microRNA oligo, concentration not stated
[2] = Eterna round: R95, input ligand: FMN 200 uM
[3] = Eterna round: R95, input ligand: microRNA oligo, concentration not stated
[4] = Eterna round: R95, input ligand: none

Sequence	apparent KD of MS2 coat protein (input ligand: FMN 200 uM)	apparent KD of MS2 coat protein [1]	apparent KD of MS2 coat protein (input ligand: none)	apparent KD of MS2 coat protein [2]	apparent KD of MS2 coat protein [3]	apparent KD of MS2 coat protein [4]
UAAUUAAGUCAAGGAUAUCACGUCGAAUAGACGUGAGAAGGUGACCAAUACAUGAGGAUCACCCAUGUAAUACAUGAAUAAUUA [SSNG1/12-B1] (Eterna round: R96, puzzle: Same State NG 1)	27.7 nM	35.8 nM	45.9 nM	–	–	–
GCCAACUAAUGAGGAUAUGGCACCUUAUUGGUGCCAGAAGGCAUGUCAAUUGACAUGAGGAUCACCCAUGUAUUAUAGUUGGCA [Fiskers NG1ss - 33] (Eterna round: R96, puzzle: Same State NG 1)	90.4 nM	178 nM	405 nM	–	–	–
AUAGUGUACGCAGGAUAUCGAUGAGGAACAUGAGGAUCACCCAUGUUGUGAGGAUCACCCAUGUAUGAGAAGGGCGACCCAUGU [Same State NG2 S1] (Eterna round: R96, puzzle: Same State NG 2)	148 nM	46 nM	57.7 nM	–	–	–
GUGGUCAGACAUGAGGAUCACCCAUGUGGAAUAAAUAAGGAGAAGGAUAUCGAAUAUAGGAUAUACGAGAAGGUUUGGUUGGUG (Eterna round: R96, puzzle: Same State NG 3)	120 nM	67.3 nM	90.6 nM	–	–	–
AGCUAUCGAAAACGAUAGCAAAAGCAUGUACAUGAGGAUCACCCAUGUCAUGUACAAGCUUUUUGCUCGUCUUGAAA [Zipper 23 - 9] (Eterna round: R96, puzzle: Sensor for hsa-mir-208a)	496 nM	16.6 nM	824 nM	–	–	–
ACAAGCUUUUUAGGAGAGAAAGGUGGGAUACAUGAGGAUCACCCAUGUAUGGUAGUUAAUAGUGGACCUCGUCUUAU [JR_SHM208A_Sub082] (puzzle: Sensor for hsa-mir-208a)	–	–	–	46.5 nM	21.7 nM	64.1 nM
UUAAUGAAGUAAGGAUAUACAUGAGGAUCACUCGUAGAAGGUACUAUACAUGAGGAUCACCCAUGUUCCGGUCAGAAGACUGGA [Mat - Same State NG 1 - JL mod - D3] (Eterna round: R96, puzzle: Same State NG 1)	598 nM	411 nM	316 nM	–	–	–
GCAAUAAGGUGAGGAUAUGCAGAGGAUCACCCUGUAGAAGGCAUCAGGUGAGGAUAUGCAGAGGAUCACCCUGUAGAAGGCAUC [pwkr ssNG DX.15] (Eterna round: R96, puzzle: Same State NG 1)	100 nM	123 nM	175 nM	–	–	–
UCUUGGUUUUUGCUCGUUUUUUGUGUUGAACAUGAGGAUCACCCAUGUAUUGUACAAUCCAGUUUGAUAAUGGUCCG [JR_SHM208A_Sub045] (puzzle: Sensor for hsa-mir-208a)	–	–	–	140 nM	112 nM	167 nM
AAUUAACAUGAGGAUCACCCAUGUCGUAUUAUGGGAGGAUAUACGUGGACCGUAGUCCGCGUAGAAGGCCUAAUUA [Mat - Same State 1 - Mod of JL - D21] (Eterna round: R96, puzzle: Same State 1)	21 nM	34.5 nM	38.2 nM	–	–	–
AAAAGAAACGCAGGAUAUGCACAUGAGGAUCACCCAUGUCCCACAGGCUCGACCGAGCCCGUGAAGCAGAAGGGUGUAAGAAAA [Redibere] (Eterna round: R96, puzzle: Same State NG 2)	82.5 nM	426 nM	3390 nM	–	–	–
ACAUGAGACUCAGGAUAUGGUGUACCUACAUGUGACAUGAGGAUCACCCAUGUGGUAAGUAUGACUCAGAAGGGAGAGAUAUGU [Equivalance 76 - Jieux - Same State NG 2] (Eterna round: R96, puzzle: Same State NG 2)	37.4 nM	116 nM	171 nM	–	–	–
CUCACUUGGGUAGGAUAUCUAGGAUAUGGGAAAGACUAAGUCUGUAGGUCACCUAACCCAGAUGGAGAGAAGGACCCAACACUC [pwkr ssNG2 2FMN + F9.38] (Eterna round: R96, puzzle: Same State NG 2)	57.9 nM	2.64 nM	33.1 nM	–	–	–
UGUUAGUAGACAGGAUAUUGAAUGUUAAGUAUUAACAUGAGGAUCACCCAUGUAUUUGAUUGGUACAAGAAGGGUCAAGUUUGU [JR_SSNG2_Sub013] (Eterna round: R96, puzzle: Same State NG 2)	487 nM	191 nM	320 nM	–	–	–
GAUUAACAUGAGGAUCACCCAUGUCGUUUAAUGGGAGGAUAUACGUGGACCGUAGUCCGCGUAGAAGGCCUAAUUG [JL-ss1-3.22 janelle mod] (puzzle: Same State 1)	–	–	–	–	76.1 nM	–
GGUAGGUUACUACCAAACAUGAGGAUCACCCAUGUUAAUGGGAAGGAUAUGGUACCUAUUUGGUACCAGAAGGUCCAAUUAAUU [JL Fiskers NG3ss - 2 mod 4] (Eterna round: R96, puzzle: Same State NG 3)	70.4 nM	520 nM	493 nM	–	–	–
UGCUACGGAGACAUGAGGAUCACCCAUGUCGCUGCUUAAGGGCAGGAUAUGAAAGGGAAUCCCAAUCAGAAGGGCCGCAGCCAC [Isanxeanor] (Eterna round: R96, puzzle: Same State NG 3)	35.3 nM	22.8 nM	32.6 nM	–	–	–
AUUAAACAUGAGGAUCACCCAUGUCAACAAAGUCGAGGAUAUGGGCAAAUAAAAUAAGAACCAGAAGGCGAAUAAU [salish99_ss1_r3_048] (puzzle: Same State 1)	–	–	–	31.6 nM	357 nM	555 nM
CGACACACGGCAGGAUAUGCUUAGCAAAGCUAAGCAGAAGGGCCUCAUGUCGUGGAAACCUGACAUGAGGAUCACCCAUGUCGG [Omei SS(NG)1 Cv3] (Eterna round: R96, puzzle: Same State NG 1)	23.8 nM	11.6 nM	37.6 nM	–	–	–
AACAGUCGGCGAGGAUAUGGACAUACGGACUAACCCGUAUGGCUCACAUGAGGAUCACCCAUGUUCUAGAAGGCGCCACUGAAA [Raridi] (Eterna round: R96, puzzle: Same State NG 2)	14.6 nM	43.4 nM	74 nM	–	–	–
